These results are taken from patent US20020141999A1.

Assay [1] addresses human CD7, full length, on cells (human) (UniProt P09564). Briefly: flow cytometry, control IgG staining of Jurkat cells (express CD7), non-blocked.
Assay [2] shares this target. Description: flow cytometry, control IgG on Jurkat cells (express CD7), non-blocked. (Flow cytometry measures light scatter and fluorescence of single cells or particles in a stream.)
Assay [3] shares this target. Briefly: flow cytometry, antibody staining of Jurkat cells (express CD7), non-blocked.
Assay [4] has the same target. Briefly: flow cytometry, antibody staining of Jurkat cells preincubated with HuK12-Fc (competitor).
The target is the same in assay [5]. Briefly: flow cytometry, control Fc on Jurkat cells (express CD7), non-blocked.

Chain of human CD7, full length, on cells (human) (P09564 26-240 limits assumed): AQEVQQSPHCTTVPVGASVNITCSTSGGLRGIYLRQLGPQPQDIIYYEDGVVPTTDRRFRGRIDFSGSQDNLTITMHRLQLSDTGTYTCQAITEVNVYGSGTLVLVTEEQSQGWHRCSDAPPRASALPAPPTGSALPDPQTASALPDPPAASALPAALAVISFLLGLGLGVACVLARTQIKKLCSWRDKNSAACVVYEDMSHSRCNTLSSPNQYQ

On to IgG Control (antibody), for which, in assay [1], the % Positive Cells is 3% and the MFI turned out to be 18. Moreover, in assay [2], the % Positive Cells came to 3.6% and the MFI came out at 17.
In assay [3], “anti-human CD7 monoclonal antibody Clone WM31 (Research Diagnostics, Inc.)” had a % Positive Cells of 62% and an MFI of 22. Besides, in assay [4], the % Positive Cells is 11% and the MFI was found to be 18.
On the same counts, the results for “anti-human CD7 monoclonal antibody Clone 8118.1 (Immunotech)” are 78%, 27, 8% and 24.
For the substance “anti-human CD7 monoclonal antibody Clone 4H9 (Pharmingen)”, in assay [3], the % Positive Cells was 88% and the MFI stood at 38. In assay [4], this substance had a % Positive Cells of 4% and an MFI of 19.
On the same counts, the results for “anti-human CD7 monoclonal antibody Clone CLB-3A1 (Research Diagnostics, Inc.)” are 80%, 30, 63% and 24.
For “anti-human CD7 monoclonal antibody Clone RFT-2a (Research Diagnostics, Inc.)”, in that order: 71%, 23, 9% and 18.
Take Control Fc (Fc fusion): in assay [5], the % Positive Cells is 3.4% and the MFI is 18.
“anti-human CD7 monoclonal antibody Clone M-T701 (Becton Dickinson)”: the % Positive Cells amounted to 78% in assay [3] and 12% in assay [4]. Besides, the MFI in assay [3] is 27; in assay [4], 19.
